Assay results as given in publication PMC6999842 (mAbs, 2020).
Blank lines part the entries; values can stand above or below the binder they belong to.

Key:
[1] = biological target: T1, human A33 transmembrane glycoprotein expressed on stably transfected murine colorectal carcinoma cells (Homo sapiens (Human)., UniProt Q99795); assay: immunostaining of cells or tissue
[2] = biological target: A33 in human colon and human colon adenocarcinoma tissue sections (Homo sapiens (Human)., UniProt Q99795); assay: immunostaining of cells or tissue
[3] = biological target: T1, human A33 transmembrane glycoprotein …; assay: flow cytometry on cells

T1 sequence (Q99795 22-319): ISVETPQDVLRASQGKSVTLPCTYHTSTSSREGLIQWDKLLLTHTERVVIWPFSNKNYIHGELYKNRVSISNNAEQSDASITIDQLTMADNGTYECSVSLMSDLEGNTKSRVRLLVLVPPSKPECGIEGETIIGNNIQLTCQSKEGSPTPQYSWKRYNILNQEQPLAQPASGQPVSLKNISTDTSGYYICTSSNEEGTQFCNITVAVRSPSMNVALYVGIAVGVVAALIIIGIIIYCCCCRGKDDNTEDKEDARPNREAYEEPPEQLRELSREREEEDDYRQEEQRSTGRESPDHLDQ
A33 in human colon and human colon adenocarcinoma tissue sections, sequence (Q99795 22-319): as above

binding result [1]: binds
B1: FITC-labeled IgG2a(MG) (antibody, V domains shown)
VH: QVQLQQSGPELVKPGASVKISCKASGYTFSGSWMNWVKQRPGQGLEWIGRIYPGDGETNYNGKFKDKATLTADKSSTTAYMELSSLTSVDSAVYFCARIYGNNVYFDVWGAGTTVTVSS
VL: QIVLTQSPAIMSASPGERVTMTCSARSSISFMYWYQQKPGSSPRLLIYDTSNLASGVPVRFSGSGSGTSYSLTISRMEAEDAATYYCQQWSSYPLTFGSGTKLELK

binding result [2]: binds
binding result [3]: binds
B2: IgG2a(K), murine anti-A33 antibody K in murine IgG2a format (antibody, V domains shown)
VH: EVKLVESGGGLVKPGGSLKLSCAASGFAFSTYDMSWVRQTPEKRLEWVATISSGGSYTYYLDSVKGRFTISRDSARNTLYLQMSSLRSEDTALYYCAPTTVVPFAYWGQGTLVTVSA
VL: DIVMTQSQKFMSTSVGDRVSITCKASQNVRTVVAWYQQKPGQSPKTLIYLASNRHTGVPDRFTGSGSGTDFTLTISNVQSEDLADYFCLQHWSYPLTFGSGTKLEVK

binding result [1]: binds
B3: FITC-labeled IgG2a(K) (antibody, V domains shown)
VH: B2 VH
VL: B2 VL
